According to patent US20200010516A1:

Target: integrin αIIbβ3 on platelets of healthy donors (UniProt P08514)
Test: cell-based or functional assay

In the case of “^39SRAGK-^46RIPRGDMP-^66RYH (Rho wild-type) (from UniProt P30403 408-475) (ligand)”, the IC50, Platelet Aggregation is reported as 83.2 nM.
